The target in experiment [1] is Arabidopsis thaliana CDC48A (Arabidopsis thaliana) (UniProt P54609). Briefly: ITC.
Experiment [2] has the same target. Briefly: cross-linking + SEC-MALS.
The target is the same in experiment [3]. The experiment is described as follows: ITC. This is another data set of the same source.
Experiment [4] addresses Arabidopsis thaliana NPL4 (Arabidopsis thaliana) (UniProt O82264). The experiment is described as follows: MST.
Experiment [5] has the same target. The experiment is described as follows: MST. This is another data set of the same source.

From article doi:10.1101/2025.03.28.645892 come the findings set out here.

Like-named read-outs stand apart in the source and are kept apart here.

Sequence of Arabidopsis thaliana CDC48A (Arabidopsis thaliana) (P54609 whole entry): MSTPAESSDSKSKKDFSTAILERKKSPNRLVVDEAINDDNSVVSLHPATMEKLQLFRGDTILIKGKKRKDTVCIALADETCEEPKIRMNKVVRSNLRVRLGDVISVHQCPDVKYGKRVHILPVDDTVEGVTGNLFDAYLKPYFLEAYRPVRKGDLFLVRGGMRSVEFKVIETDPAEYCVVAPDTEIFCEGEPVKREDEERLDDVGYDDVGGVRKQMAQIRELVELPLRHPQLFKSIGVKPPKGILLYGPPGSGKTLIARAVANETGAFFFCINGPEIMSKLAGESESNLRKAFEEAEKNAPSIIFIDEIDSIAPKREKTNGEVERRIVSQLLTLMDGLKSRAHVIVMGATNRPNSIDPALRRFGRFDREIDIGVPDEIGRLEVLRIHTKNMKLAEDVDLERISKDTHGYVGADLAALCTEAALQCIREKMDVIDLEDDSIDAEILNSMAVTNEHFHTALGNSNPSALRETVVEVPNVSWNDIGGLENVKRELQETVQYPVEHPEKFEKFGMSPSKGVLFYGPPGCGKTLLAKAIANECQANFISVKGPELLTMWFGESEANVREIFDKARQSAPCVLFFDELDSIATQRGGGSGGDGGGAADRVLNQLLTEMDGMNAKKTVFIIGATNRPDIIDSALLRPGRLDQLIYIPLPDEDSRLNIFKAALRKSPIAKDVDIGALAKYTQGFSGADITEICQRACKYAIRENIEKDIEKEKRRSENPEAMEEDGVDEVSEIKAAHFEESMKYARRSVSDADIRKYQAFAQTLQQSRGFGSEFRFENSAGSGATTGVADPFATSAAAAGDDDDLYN
Sequence of Arabidopsis thaliana NPL4 (Arabidopsis thaliana) (O82264 whole entry): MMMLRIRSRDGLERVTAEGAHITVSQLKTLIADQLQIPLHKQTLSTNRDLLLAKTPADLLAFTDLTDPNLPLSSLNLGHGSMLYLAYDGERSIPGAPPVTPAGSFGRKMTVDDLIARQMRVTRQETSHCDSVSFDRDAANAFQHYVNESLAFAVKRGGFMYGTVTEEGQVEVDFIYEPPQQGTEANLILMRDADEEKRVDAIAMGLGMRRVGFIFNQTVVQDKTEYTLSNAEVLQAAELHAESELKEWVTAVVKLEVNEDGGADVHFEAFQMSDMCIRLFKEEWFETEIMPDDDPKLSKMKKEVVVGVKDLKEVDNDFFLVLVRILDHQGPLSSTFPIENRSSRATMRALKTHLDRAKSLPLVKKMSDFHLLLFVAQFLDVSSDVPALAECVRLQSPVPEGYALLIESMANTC

In experiment [1], “Arabidopsis thaliana NPL4 (from UniProt O82264 1-413) (natural protein)” gave a Kd of 2.6 µM and a stoichiometry N (AtNPL4 per AtCDC48A hexamer) of 1. In addition, the stoichiometry N (copy per six AtCDC48A) in experiment [2] was determined as 1. The Kd in experiment [3] is 7.1 µM.

In the case of “Arabidopsis thaliana UFD1B (from UniProt Q9SJV0 1-340) (natural protein)”, in experiment [1], the Kd was found to be 4.4 µM and the stoichiometry N (cofactor per AtCDC48A hexamer) worked out at 1. For the same substance, the stoichiometry N (copy per six AtCDC48A) in experiment [2] was determined as 1.

Take “Arabidopsis thaliana UFD1A (natural protein)”: the Kd in experiment [4] and in experiment [5] was more than 200 µM in each case.
